Experimental data as given in article PMC3765742 (2013).

Biological target: M6P/IGF-IIR (Homo sapiens, UniProt P11717)
Test: SPR

Chain of M6P/IGF-IIR (P11717 41-2491): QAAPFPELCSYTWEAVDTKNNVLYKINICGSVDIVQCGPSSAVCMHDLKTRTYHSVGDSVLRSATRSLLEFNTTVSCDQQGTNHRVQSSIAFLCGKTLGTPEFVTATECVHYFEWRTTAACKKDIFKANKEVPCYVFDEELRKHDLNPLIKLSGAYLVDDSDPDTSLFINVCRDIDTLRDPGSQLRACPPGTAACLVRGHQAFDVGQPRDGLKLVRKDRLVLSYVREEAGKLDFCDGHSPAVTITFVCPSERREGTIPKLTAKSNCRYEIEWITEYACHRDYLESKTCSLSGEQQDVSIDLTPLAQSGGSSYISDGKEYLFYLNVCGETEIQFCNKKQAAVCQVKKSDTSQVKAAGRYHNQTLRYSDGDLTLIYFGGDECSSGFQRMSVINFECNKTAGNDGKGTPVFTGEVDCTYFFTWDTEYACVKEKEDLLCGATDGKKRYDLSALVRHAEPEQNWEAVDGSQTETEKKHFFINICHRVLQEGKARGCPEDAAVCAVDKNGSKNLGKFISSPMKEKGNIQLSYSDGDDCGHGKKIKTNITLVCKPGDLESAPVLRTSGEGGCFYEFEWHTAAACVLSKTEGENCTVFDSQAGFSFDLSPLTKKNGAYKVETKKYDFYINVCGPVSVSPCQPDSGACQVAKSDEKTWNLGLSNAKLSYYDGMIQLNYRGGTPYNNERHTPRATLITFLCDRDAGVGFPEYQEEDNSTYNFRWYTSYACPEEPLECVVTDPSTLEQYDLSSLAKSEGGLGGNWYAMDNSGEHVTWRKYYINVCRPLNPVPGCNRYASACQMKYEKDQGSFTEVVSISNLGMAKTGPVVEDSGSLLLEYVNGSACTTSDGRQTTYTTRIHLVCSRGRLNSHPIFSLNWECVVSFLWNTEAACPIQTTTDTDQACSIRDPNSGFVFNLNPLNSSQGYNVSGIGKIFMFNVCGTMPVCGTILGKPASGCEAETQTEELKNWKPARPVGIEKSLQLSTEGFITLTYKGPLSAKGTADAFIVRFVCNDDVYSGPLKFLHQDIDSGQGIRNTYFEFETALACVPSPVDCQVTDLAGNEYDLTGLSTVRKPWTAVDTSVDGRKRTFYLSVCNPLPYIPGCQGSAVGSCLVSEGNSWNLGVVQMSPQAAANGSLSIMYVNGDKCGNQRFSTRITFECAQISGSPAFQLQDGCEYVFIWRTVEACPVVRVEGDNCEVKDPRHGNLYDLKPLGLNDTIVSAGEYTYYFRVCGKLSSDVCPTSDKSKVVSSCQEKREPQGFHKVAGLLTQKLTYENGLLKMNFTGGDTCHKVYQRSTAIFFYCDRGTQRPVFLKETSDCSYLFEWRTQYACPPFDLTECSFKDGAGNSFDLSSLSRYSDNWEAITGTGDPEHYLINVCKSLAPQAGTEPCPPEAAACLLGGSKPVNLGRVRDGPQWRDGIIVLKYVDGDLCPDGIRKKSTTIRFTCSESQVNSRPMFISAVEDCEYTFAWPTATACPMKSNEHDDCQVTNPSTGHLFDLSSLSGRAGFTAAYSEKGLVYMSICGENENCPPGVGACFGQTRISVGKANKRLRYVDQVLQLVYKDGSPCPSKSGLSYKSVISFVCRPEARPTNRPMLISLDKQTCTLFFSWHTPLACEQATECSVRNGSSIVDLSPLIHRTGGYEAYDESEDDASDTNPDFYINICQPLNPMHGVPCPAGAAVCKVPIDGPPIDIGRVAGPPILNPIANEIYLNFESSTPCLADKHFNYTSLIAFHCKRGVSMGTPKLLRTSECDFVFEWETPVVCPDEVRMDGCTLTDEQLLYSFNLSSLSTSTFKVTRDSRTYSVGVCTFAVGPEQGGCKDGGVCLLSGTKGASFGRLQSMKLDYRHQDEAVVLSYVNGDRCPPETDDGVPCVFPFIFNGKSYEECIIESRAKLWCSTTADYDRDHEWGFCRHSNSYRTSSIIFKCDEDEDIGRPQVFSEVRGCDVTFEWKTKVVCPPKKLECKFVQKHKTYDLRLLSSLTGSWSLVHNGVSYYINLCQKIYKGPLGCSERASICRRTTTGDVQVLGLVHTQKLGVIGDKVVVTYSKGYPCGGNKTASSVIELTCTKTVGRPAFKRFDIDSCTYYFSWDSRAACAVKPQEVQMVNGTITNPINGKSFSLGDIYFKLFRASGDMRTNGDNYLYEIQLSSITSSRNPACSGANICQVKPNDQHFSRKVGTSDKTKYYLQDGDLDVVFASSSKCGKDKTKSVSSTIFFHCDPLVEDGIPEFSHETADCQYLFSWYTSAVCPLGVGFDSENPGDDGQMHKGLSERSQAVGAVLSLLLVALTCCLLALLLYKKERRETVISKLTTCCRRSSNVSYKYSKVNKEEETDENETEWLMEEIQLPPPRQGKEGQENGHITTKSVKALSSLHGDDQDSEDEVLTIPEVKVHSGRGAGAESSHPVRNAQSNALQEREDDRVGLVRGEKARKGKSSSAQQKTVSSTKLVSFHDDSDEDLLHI

Kd: 35.9 µM
B1: DPP-4 (protein)
chain: SRKTYTLTDYLKNTYRLKLYSLRWISDHEYLYKQENNILVFNAEYGNSSVFLENSTFDEFGHSINDYSISPDGQFILLEYNYVKQWRHSYTASYDIYDLNKRQLITEERIPNNTQWVTWSPVGHKLAYVWNNDIYVKIEPNLPSYRITWTGKEDIIYNGITDWVYEEEVFSAYSALWWSPNGTFLAYAQFNDTEVPLIEYSFYSDESLQYPKTVRVPYPKAGAVNPTVKFFVVNTDSLSSVTNATSIQITAPASMLIGDHYLCDVTWATQERISLQWLRRIQNYSVMDICDYDESSGRWNCLVARQHIEMSTTGWVGRFRPSEPHFTLDGNSFYKIISNEEGYRHICYFQIDKKDCTFITKGTWEVIGIEALTSDYLYYISNEYKGMPGGRNLYKIQLSDYTKVTCLSCELNPERCQYYSVSFSKEAKYYQLRCSGPGLPLYTLHSSVNDKGLRVLEDNSALDKMLQNVQMPSKKLDFIILNETKFWYQMILPPHFDKSKKYPLLLDVYAGPCSQKADTVFRLNWATYLASTENIIVASFDGRGSGYQGDKIMHAINRRLGTFEVEDQIEAARQFSKMGFVDNKRIAIWGWSYGGYVTSMVLGSGSGVFKCGIAVAPVSRWEYYDSVYTERYMGLPTPEDNLDHYRNSTVMSRAENFKQVEYLLIHGTADDNVHFQQSAQISKALVDVGVDFQAMWYTDEDHGIASSTAHQHIYTHMSHFIKQCFSLP
